{"source": "paper PMC4980769", "about": "(2016)", "key": {"[1]": {"biological_target": "AgrA full length (AgrAFL) (Staphylococcus aureus) (UniProt P0A0I7)", "assay": "BLI", "conditions": "domain or fragment"}, "[2]": {"biological_target": "AgrA full length (AgrAFL) (Staphylococcus aureus) (UniProt P0A0I7)", "assay": "BLI; H2O2", "conditions": "domain or fragment"}, "[3]": {"biological_target": "AgrA full length (AgrAFL) (Staphylococcus aureus) (UniProt P0A0I7)", "assay": "BLI; DTT", "conditions": "domain or fragment"}, "[4]": {"biological_target": "AgrA full length (AgrAFL) (Staphylococcus aureus) (UniProt P0A0I7)", "assay": "BLI; AgrAFL (ligand) immobilised on amine reactive 2nd generation (AR2G) tips; AgrC proteins as analytes at different concentrations; 20 mM HEPES pH 7.6, 200 mM KCl, 2% glycerol; AgrC proteins incubated separately with 5 uM DTT and H2O2; Octet Data Analysis Software v 8.0"}, "[5]": {"biological_target": "T1, AgrA full length (AgrAFL) (Staphylococcus aureus, UniProt P0A0I7 1-238)", "T1 chain": "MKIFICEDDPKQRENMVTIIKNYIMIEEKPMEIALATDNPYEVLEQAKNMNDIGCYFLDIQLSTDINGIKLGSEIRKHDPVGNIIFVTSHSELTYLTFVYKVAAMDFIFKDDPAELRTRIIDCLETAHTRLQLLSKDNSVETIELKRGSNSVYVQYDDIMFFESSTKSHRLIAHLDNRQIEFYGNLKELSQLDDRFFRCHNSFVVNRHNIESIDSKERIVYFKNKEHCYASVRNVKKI", "assay": "BLI"}, "[6]": {"biological_target": "T1, AgrA full length (AgrAFL)", "assay": "BLI; DTT"}, "[7]": {"biological_target": "T1, AgrA full length (AgrAFL)", "assay": "BLI; H2O2"}}, "data": [{"molecule": "recombinant AgrC Y223C protein", "values": [{"measurement": "Kd", "setting": "[1]", "result": 105, "unit": "nM"}, {"measurement": "Kd", "setting": "[2]", "result": 31.4, "unit": "nM"}, {"measurement": "Kd", "setting": "[3]", "result": 44.9, "unit": "nM"}]}, {"molecule": "recombinant AgrC Y223C protein (domain or fragment)", "values": [{"measurement": "fold reduction in binding affinity against wild-type AgrC", "setting": "[4]", "result": "< 10", "unit": "fold"}]}, {"molecule": "recombinant wild-type AgrC (cytosolic domain) (domain or fragment) KEMKYKRNQEEIETYYEYTLKIEAINNEMRKFRHDYVNILTPLSEYIREDDMPGLRDYFNKNIVPMKDNLQMNAIKLNGIENLKVREIKGLITAKILRAQEMNIPISIEIPDEVSSINLNMIDLSRSIGIILDNAIEASTEIDDPIIRVAFIESENSVTFIVMNKCADDIPRIHELFQESFSTKGEGRGLGLSTLKEIADNADNVLLDTIIENGFFIQKVEIINN", "values": [{"measurement": "Kd", "setting": "[5]", "result": 93.1, "unit": "nM"}, {"measurement": "Kd", "setting": "[6]", "result": 99.8, "unit": "nM"}, {"measurement": "Kd", "setting": "[7]", "result": 4.21, "unit": "nM"}]}]}
